Experimental data published in patent publication US20110280873A1.
Where two headings read alike, the source gives them in different places. Blank lines part the entries; values can stand above or below the substance they belong to.

What was measured:
Test in all cases: cell-based or functional assay
[1] = target: CCR2 (the MCP1 receptor) on THP-1 human monocytic cells (human) (UniProt P41597)
[2] = target: CCR2 (the MCP1 receptor) on THP-1 human monocytic cells (human) (UniProt P41597); remark: listed apart in the source
[3] = target: CCR2 (the MCP1 receptor) on THP-1 human monocytic cells (human) (UniProt P41597); remark: listed apart in the source
[4] = target: CCR2 (the MCP1 receptor) on THP-1 human monocytic cells (human) (UniProt P41597); remark: listed apart in the source

Sequence of UniProt P41597 (P41597 whole entry): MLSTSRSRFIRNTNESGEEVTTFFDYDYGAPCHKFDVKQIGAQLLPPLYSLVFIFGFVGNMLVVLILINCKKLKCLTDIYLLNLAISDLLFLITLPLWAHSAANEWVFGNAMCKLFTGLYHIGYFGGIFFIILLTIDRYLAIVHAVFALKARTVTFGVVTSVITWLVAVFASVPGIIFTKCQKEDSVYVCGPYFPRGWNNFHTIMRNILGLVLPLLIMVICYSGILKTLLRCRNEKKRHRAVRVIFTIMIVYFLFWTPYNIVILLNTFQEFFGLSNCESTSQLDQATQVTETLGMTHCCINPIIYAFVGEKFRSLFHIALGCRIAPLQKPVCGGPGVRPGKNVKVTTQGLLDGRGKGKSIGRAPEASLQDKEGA

EC50, agonist THP-1 cell migration [1]: 0.03 nM
IC50, antagonist assay of THP-1 cell migration toward rhMCP-1 [1]: 0.01 to 0.1 nM
potency in agonist cell migration relative to rhMCP-1 [1]: 3 fold
relative % of THP-1 cell migration, antagonist assay, rhMCP-1 0 nM, LPD1421 0.01 nM [2]: 11.8%
relative % of THP-1 cell migration, antagonist assay, rhMCP-1 0 nM, LPD1421 0.1 nM [2]: 9.55%
relative % of THP-1 cell migration, antagonist assay, rhMCP-1 0 nM, LPD1421 1 nM [2]: 12.6%
relative % of THP-1 cell migration, antagonist assay, rhMCP-1 0.01 nM, LPD1421 0.01 nM [2]: 10.6%
relative % of THP-1 cell migration, antagonist assay, rhMCP-1 0.01 nM, LPD1421 0.1 nM [2]: 9.42%
relative % of THP-1 cell migration, antagonist assay, rhMCP-1 0.01 nM, LPD1421 1 nM [2]: 8.35%
relative % of THP-1 cell migration, antagonist assay, rhMCP-1 0.03 nM, LPD1421 0.01 nM [2]: 12.7%
relative % of THP-1 cell migration, antagonist assay, rhMCP-1 0.03 nM, LPD1421 0.1 nM [2]: 10.3%
relative % of THP-1 cell migration, antagonist assay, rhMCP-1 0.03 nM, LPD1421 1 nM [2]: 10.7%
relative % of THP-1 cell migration, antagonist assay, rhMCP-1 0.1 nM, LPD1421 0.01 nM [2]: 24.3%
relative % of THP-1 cell migration, antagonist assay, rhMCP-1 0.1 nM, LPD1421 0.1 nM [2]: 12.1%
relative % of THP-1 cell migration, antagonist assay, rhMCP-1 0.1 nM, LPD1421 1 nM [2]: 7.25%
relative % of THP-1 cell migration, antagonist assay, rhMCP-1 0.3 nM, LPD1421 0.01 nM [2]: 41.7%
relative % of THP-1 cell migration, antagonist assay, rhMCP-1 0.3 nM, LPD1421 0.1 nM [2]: 15.9%
relative % of THP-1 cell migration, antagonist assay, rhMCP-1 0.3 nM, LPD1421 1 nM [2]: 13.5%
relative % of THP-1 cell migration, antagonist assay, rhMCP-1 1 nM, LPD1421 0.01 nM [2]: 61.2%
relative % of THP-1 cell migration, antagonist assay, rhMCP-1 1 nM, LPD1421 0.1 nM [2]: 33.7%
relative % of THP-1 cell migration, antagonist assay, rhMCP-1 1 nM, LPD1421 1 nM [2]: 9.44%
relative % of THP-1 cell migration, antagonist assay, rhMCP-1 3 nM, LPD1421 0.01 nM [2]: 44%
relative % of THP-1 cell migration, antagonist assay, rhMCP-1 3 nM, LPD1421 0.1 nM [2]: 39.2%
relative % of THP-1 cell migration, antagonist assay, rhMCP-1 3 nM, LPD1421 1 nM [2]: 9.57%
relative % of THP-1 cell migration, antagonist assay, rhMCP-1 10 nM, LPD1421 0.01 nM [2]: 39.2%
relative % of THP-1 cell migration, antagonist assay, rhMCP-1 10 nM, LPD1421 0.1 nM [2]: 37.9%
relative % of THP-1 cell migration, antagonist assay, rhMCP-1 10 nM, LPD1421 1 nM [2]: 16.1%
relative % of THP-1 cell migration, agonist assay, 0.01 nM [3]: 27.9%
relative % of THP-1 cell migration, agonist assay, 0.03 nM [3]: 63.8%
relative % of THP-1 cell migration, agonist assay, 0.1 nM [3]: 104%
relative % of THP-1 cell migration, agonist assay, 0.3 nM [3]: 86.2%
relative % of THP-1 cell migration, agonist assay, 1 nM [3]: 59.5%
relative % of THP-1 cell migration, agonist assay, 3 nM [3]: 33.1%
relative % of THP-1 cell migration, agonist assay, 10 nM [3]: 26.4%
Substance: LPD1421 (MCP1-Ig fusion: mature human MCP1, linker GGEPKSS of SEQ ID NO: 12, human IgG1 variant hinge-CH3 with D265A) (Fc fusion)

EC50, agonist THP-1 cell migration [1]: 0.03 to 0.3 nM
relative % of THP-1 cell migration, agonist assay, 0.03 nM [1]: 17.7%
relative % of THP-1 cell migration, agonist assay, 0.1 nM [1]: 34.3%
relative % of THP-1 cell migration, agonist assay, 0.3 nM [1]: 35.5%
relative % of THP-1 cell migration, agonist assay, 1 nM [1]: 36.5%
relative % of THP-1 cell migration, agonist assay, 3 nM [1]: 26.7%
relative % of THP-1 cell migration, agonist assay, 10 nM [1]: 17.5%
relative % of THP-1 cell migration, agonist assay, 30 nM [1]: 20.1%
Substance: NGSD (human MCP-1 joined at its carboxy-terminus directly to wild-type human IgG1 Fc) (from UniProt P13500 24-99; P01857 99-330) (Fc fusion)

EC50, agonist THP-1 cell migration [1]: 0.03 to 0.3 nM
relative % of THP-1 cell migration, agonist assay, 0.03 nM [4]: 22.8%
relative % of THP-1 cell migration, agonist assay, 0.1 nM [4]: 34.5%
relative % of THP-1 cell migration, agonist assay, 0.3 nM [4]: 41.9%
relative % of THP-1 cell migration, agonist assay, 1 nM [4]: 58.9%
relative % of THP-1 cell migration, agonist assay, 3 nM [4]: 53%
relative % of THP-1 cell migration, agonist assay, 10 nM [4]: 34.3%
relative % of THP-1 cell migration, agonist assay, 30 nM [4]: 23.1%
Substance: GSD (human MCP-1, glycine-serine dipeptide, wild-type human IgG1 Fc) (from UniProt P13500 24-99; P01857 99-330) (Fc fusion)

EC50, agonist THP-1 cell migration [1]: 0.1 nM
relative % of THP-1 cell migration toward rhMCP-1 0.01 nM, medium only [1]: 6.44%
relative % of THP-1 cell migration toward rhMCP-1 0.03 nM, medium only [1]: 15%
relative % of THP-1 cell migration toward rhMCP-1 0.1 nM, medium only [1]: 32%
relative % of THP-1 cell migration toward rhMCP-1 0.3 nM, medium only [1]: 67.5%
relative % of THP-1 cell migration toward rhMCP-1 1 nM, medium only [1]: 100%
relative % of THP-1 cell migration toward rhMCP-1 3 nM, medium only [1]: 97%
relative % of THP-1 cell migration toward rhMCP-1 10 nM, medium only [1]: 75.5%
relative % of THP-1 cell migration, agonist assay, 0.03 nM [1]: 26.5%
relative % of THP-1 cell migration, agonist assay, 0.1 nM [1]: 46.4%
relative % of THP-1 cell migration, agonist assay, 0.3 nM [1]: 80.2%
relative % of THP-1 cell migration, agonist assay, 1 nM [1]: 100%
relative % of THP-1 cell migration, agonist assay, 3 nM [1]: 70.3%
relative % of THP-1 cell migration, agonist assay, 10 nM [1]: 32.8%
relative % of THP-1 cell migration, agonist assay, 30 nM [1]: 26.4%
relative % of THP-1 cell migration, agonist assay, 0.03 nM [4]: 28.6%
relative % of THP-1 cell migration, agonist assay, 0.1 nM [4]: 52.2%
relative % of THP-1 cell migration, agonist assay, 0.3 nM [4]: 76%
relative % of THP-1 cell migration, agonist assay, 3 nM [4]: 78.1%
relative % of THP-1 cell migration, agonist assay, 10 nM [4]: 47.5%
relative % of THP-1 cell migration, agonist assay, 30 nM [4]: 25.3%
relative % of THP-1 cell migration toward rhMCP-1 0.01 nM, medium only [2]: 16.2%
relative % of THP-1 cell migration toward rhMCP-1 0.03 nM, medium only [2]: 24.2%
relative % of THP-1 cell migration toward rhMCP-1 0.1 nM, medium only [2]: 34.8%
relative % of THP-1 cell migration toward rhMCP-1 0.3 nM, medium only [2]: 60.7%
relative % of THP-1 cell migration toward rhMCP-1 3 nM, medium only [2]: 82.1%
relative % of THP-1 cell migration toward rhMCP-1 10 nM, medium only [2]: 59.8%
relative % of THP-1 cell migration, agonist assay, 0.01 nM [3]: 29.2%
relative % of THP-1 cell migration, agonist assay, 0.03 nM [3]: 28.7%
relative % of THP-1 cell migration, agonist assay, 0.1 nM [3]: 59.4%
relative % of THP-1 cell migration, agonist assay, 0.3 nM [3]: 87.3%
relative % of THP-1 cell migration, agonist assay, 3 nM [3]: 78.4%
relative % of THP-1 cell migration, agonist assay, 10 nM [3]: 48.4%
Substance: recombinant human MCP-1 (rhMCP-1) (R & D Systems) (from UniProt P13500 24-99) (ligand)
